A word on the Kd: it is a measure of binding affinity in units of concentration. High values mean lower affinity, low ones higher affinity.

These results are taken from paper doi:10.1101/2022.06.21.496973.

For assay [1], the target named is taxol-stabilized microtubules (co-sedimentation assays) (porcine) (UniProt P02550). Kind of assay: co-sedimentation.
Assay [2] concerns the target taxol-stabilized rhodamine-labeled, biotinylated microtubules stored overnight at 23°C or 37°C (damaged MTs) (porcine) (UniProt P02550). Kind of assay: TIRF microscopy of eGFP fluorescence on immobilised microtubules.
In assay [3] the target is 6XHis-688-924 (Abl2 site I fragment) (murine) (UniProt Q4JIM5). Put plainly: BLI. (In BLI a coated tip is dipped into the sample, and binding shifts an interference pattern.)
The target of assay [4] is 6XHis-557-C (Abl2 C-terminal half) (murine) (UniProt Q4JIM5). Put plainly: BLI.
In assay [5] the target is 6XHis-Abl2 (murine Abl2, residues 74-1182) (murine) (UniProt Q4JIM5). Kind of assay: BLI.
Assay [6] addresses 6XHis-1024-1090 (Abl2 site II fragment) (murine) (UniProt Q4JIM5). Put plainly: BLI.

“6XHis-Abl2Δ688-790 (naturally occurring splice isoform) (from UniProt Q4JIM5 74-1182) (natural protein)” came in with a Kd in assay [1] of 400 nM.
Regarding “Abl2-eGFP (from UniProt Q4JIM5 74-1182) (natural protein)”, in assay [2], the mean fluorescence intensity per µm on MTs stored at 23°C was determined as 0.91 a.u.·µm^-1; the mean fluorescence intensity per µm on MTs stored at 37°C was found to be 0.71 a.u.·µm^-1; the mean intensity on borders of damage, MTs stored at 23°C came out at 0.39 a.u; the mean intensity on borders of damage, MTs stored at 37°C was 0.38 a.u. In assay [2], this substance gave a mean intensity on lattices, MTs stored at 23°C of 0.3 a.u and a mean intensity on lattices, MTs stored at 37°C of 0.28 a.u. This substance also had a Kd in assay [1] of 320 nM.
Consider “porcine brain tubulin dimers (from UniProt P02550 1-451; Q767L7 1-444) (complex)”, for which the Kd in assay [3] turned out to be 118 nM; in assay [4] it was 17 nM; in assay [5], 42 nM; in assay [6] it was 252 nM.
